Measured values as given in patent US20100261647A1 (ARMAGEN TECHNOLOGIES, published 2010).

What was measured:
[1] = target: T1, human insulin receptor extracellular domain (HIR ECD) (human, UniProt P06213 28-956, limits assumed); test: ELISA on plated HIR ECD, detection with biotinylated goat anti-human IgG (H+L)
T1 construct: extracellular domain
Method: CHO cells permanently transfected with the HIR ECD were grown in serum free media (SFM), and the HIR ECD was purified with a wheat germ agglutinin affinity column.

[2] = target: T1, human insulin receptor extracellular …; test: competitive ligand binding assay, displacement of [125I]-murine HIRMAb from plated HIR ECD, Scatchard analysis
Method: CHO cells transfected with the HIR ECD were grown in serum free media (SFM), and the HIR ECD was purified with a wheat germ agglutinin affinity column.

EC50 [1]: 0.21 nM | Ki [2]: 0.63 nM
B1: chimeric HIRMAb (chimeric monoclonal antibody against the human insulin receptor) (antibody, human IgG1, kappa, V domains shown)
VH: QVQLQQSGPELVKPGALVKISCKASGYTFTNYDIHWVKQRPGQGLEWIGWIYPGDGSTKYNEKFKGKATLTADKSSSTAYMHLSSLTSEKSAVYFCAREWAYWGQGTLVTVSA
VL: DIQMTQSPSSLSASLGERVSLTCRASQDIGGNLYWLQQGPDGTIKRLIYATSSLDSGVPKRFSGSRSGSDYSLTISSLESEDFVDYYCLQYSSSPWTFGGGTKMEIKR
notes: Chimeric human IgG1/kappa
